# In patent publication US20240117018A1:
# Columns and labels:
# Assay in all cases: cell-based or functional assay
# [1] = target: HIV-1 Env of pseudovirus 0815.v3.c3 (HIV-1)
# [2] = target: HIV-1 Env of pseudovirus 211-9 (HIV-1)
# [3] = target: HIV-1 Env of pseudovirus 231966.c02 (HIV-1)
# [4] = target: HIV-1 Env of pseudovirus 235-47 (HIV-1)
# [5] = target: HIV-1 Env of pseudovirus 3016.v5.c45 (HIV-1)
# [6] = target: HIV-1 Env of pseudovirus 3103.v3.c10 (HIV-1)
# [7] = target: HIV-1 Env of pseudovirus 3301.v1.c24 (HIV-1)
# [8] = target: HIV-1 Env of pseudovirus 3817.v2.c59 (HIV-1)
# [9] = target: HIV-1 Env of pseudovirus 6041.v3.c23 (HIV-1)
# [10] = target: HIV-1 Env of pseudovirus 620345.c01 (HIV-1)
# [11] = target: HIV-1 Env of pseudovirus 6480.v4.c25 (HIV-1)
# [12] = target: HIV-1 Env of pseudovirus 6540.v4.c1 (HIV-1)
# [13] = target: HIV-1 Env of pseudovirus 6545.v4.c1 (HIV-1)
# [14] = target: HIV-1 Env of pseudovirus 6811.v7.c18 (HIV-1)
# [15] = target: HIV-1 Env of pseudovirus 6952.v1.c20 (HIV-1)
# [16] = target: HIV-1 Env of pseudovirus 89-F1_2_25 (HIV-1)
# [17] = target: HIV-1 Env of pseudovirus A07412M1.vrc12 (HIV-1)
# [18] = target: HIV-1 Env of pseudovirus BJOX010000.06.2 (HIV-1)
# [19] = target: HIV-1 Env of pseudovirus BJOX025000.01.1 (HIV-1)
# [20] = target: HIV-1 Env of pseudovirus C1080.c03 (HIV-1)
# [21] = target: HIV-1 Env of pseudovirus C3347.c11 (HIV-1)
# [22] = target: HIV-1 Env of pseudovirus C4118.c09 (HIV-1)
# [23] = target: HIV-1 Env of pseudovirus P0402_c2_11 (HIV-1)
# [24] = target: HIV-1 Env of pseudovirus R1166.c01 (HIV-1)
# [25] = target: HIV-1 Env of pseudovirus R2184.c04 (HIV-1)
# [26] = target: HIV-1 Env of pseudovirus R3265.c06 (HIV-1)
# [27] = target: HIV-1 Env of pseudovirus T251-18 (HIV-1)
# [28] = target: HIV-1 Env of pseudovirus T255-34 (HIV-1)
# [29] = target: HIV-1 Env of pseudovirus T278-50 (HIV-1)
# [30] = target: HIV-1 Env of pseudovirus X1193_c1 (HIV-1)
# [31] = target: HIV-1 Env of pseudovirus X2088_c9 (HIV-1)
# [32] = target: HIV-1 Env of pseudovirus X2131_C1_B5 (HIV-1)
substance,measurement,setting,value
PG9 (antibody),IC50 neutralization (TZM.bl),[1],> 50 µg/mL
same,IC80 neutralization (TZM.bl),[1],> 50 µg/mL
same,IC50 neutralization (TZM.bl),[2],0.049 µg/mL
same,IC80 neutralization (TZM.bl),[2],0.243 µg/mL
same,IC50 neutralization (TZM.bl),[3],0.075 µg/mL
same,IC80 neutralization (TZM.bl),[3],0.257 µg/mL
same,IC50 neutralization (TZM.bl),[4],0.233 µg/mL
same,IC80 neutralization (TZM.bl),[4],1.2 µg/mL
same,IC50 neutralization (TZM.bl),[5],2.46 µg/mL
same,IC80 neutralization (TZM.bl),[5],> 50 µg/mL
same,IC50 neutralization (TZM.bl),[6],28 µg/mL
same,IC80 neutralization (TZM.bl),[6],> 50 µg/mL
same,IC50 neutralization (TZM.bl),[7],0.216 µg/mL
same,IC80 neutralization (TZM.bl),[7],0.756 µg/mL
same,IC50 neutralization (TZM.bl),[8],0.02 µg/mL
same,IC80 neutralization (TZM.bl),[8],0.062 µg/mL
same,IC50 neutralization (TZM.bl),[9],0.244 µg/mL
same,IC80 neutralization (TZM.bl),[9],3.64 µg/mL
same,IC50 neutralization (TZM.bl),[10],1.33 µg/mL
same,IC80 neutralization (TZM.bl),[10],> 50 µg/mL
same,IC50 neutralization (TZM.bl),[11],> 50 µg/mL
same,IC80 neutralization (TZM.bl),[11],> 50 µg/mL
same,IC50 neutralization (TZM.bl),[12],0.07 µg/mL
same,IC80 neutralization (TZM.bl),[12],0.253 µg/mL
same,IC50 neutralization (TZM.bl),[13],0.099 µg/mL
same,IC80 neutralization (TZM.bl),[13],0.351 µg/mL
same,IC50 neutralization (TZM.bl),[14],> 50 µg/mL
same,IC80 neutralization (TZM.bl),[14],> 50 µg/mL
same,IC50 neutralization (TZM.bl),[15],> 50 µg/mL
same,IC80 neutralization (TZM.bl),[15],> 50 µg/mL
same,IC50 neutralization (TZM.bl),[16],0.668 µg/mL
same,IC80 neutralization (TZM.bl),[16],10.1 µg/mL
same,IC50 neutralization (TZM.bl),[17],0.697 µg/mL
same,IC80 neutralization (TZM.bl),[17],7.96 µg/mL
same,IC50 neutralization (TZM.bl),[18],0.154 µg/mL
same,IC80 neutralization (TZM.bl),[18],0.74 µg/mL
same,IC50 neutralization (TZM.bl),[19],0.144 µg/mL
same,IC80 neutralization (TZM.bl),[19],0.335 µg/mL
same,IC50 neutralization (TZM.bl),[20],0.004 µg/mL
same,IC80 neutralization (TZM.bl),[20],0.013 µg/mL
same,IC50 neutralization (TZM.bl),[21],0.032 µg/mL
same,IC80 neutralization (TZM.bl),[21],0.113 µg/mL
same,IC50 neutralization (TZM.bl),[22],0.068 µg/mL
same,IC80 neutralization (TZM.bl),[22],0.2 µg/mL
same,IC50 neutralization (TZM.bl),[23],0.296 µg/mL
same,IC80 neutralization (TZM.bl),[23],2.37 µg/mL
same,IC50 neutralization (TZM.bl),[24],0.736 µg/mL
same,IC80 neutralization (TZM.bl),[24],2.88 µg/mL
same,IC50 neutralization (TZM.bl),[25],0.255 µg/mL
same,IC80 neutralization (TZM.bl),[25],1.24 µg/mL
same,IC50 neutralization (TZM.bl),[26],0.163 µg/mL
same,IC80 neutralization (TZM.bl),[26],0.535 µg/mL
same,IC50 neutralization (TZM.bl),[27],> 50 µg/mL
same,IC80 neutralization (TZM.bl),[27],> 50 µg/mL
same,IC50 neutralization (TZM.bl),[28],0.023 µg/mL
same,IC80 neutralization (TZM.bl),[28],0.134 µg/mL
same,IC50 neutralization (TZM.bl),[29],0.393 µg/mL
same,IC80 neutralization (TZM.bl),[29],3.19 µg/mL
same,IC50 neutralization (TZM.bl),[30],0.105 µg/mL
same,IC80 neutralization (TZM.bl),[30],0.304 µg/mL
same,IC50 neutralization (TZM.bl),[31],> 50 µg/mL
same,IC80 neutralization (TZM.bl),[31],> 50 µg/mL
same,IC50 neutralization (TZM.bl),[32],0.084 µg/mL
same,IC80 neutralization (TZM.bl),[32],0.286 µg/mL
